Patent US20040180341A1, “Transcriptional regulation of kinase inhibitors” (Brown University, priority 2003, published 2004)

Columns and labels:
[1] = tested on: AP-1 dependent reporter gene; test: AP-1 dependent reporter gene (TRE-lacZ), microinjection into Rat-1 cells; format: cell-based; conditions: for suppression of AP-1 reporter induction caused by anti-RKIP antibodies: MEK inhibitors given 1 h before microinjection
From the text: In one embodiment, the RKIP protein inhibiting agent can be an antibody specifically recognizing an RKIP motif. For example, to examine the relevance of the interaction between RKIP and the kinases of the Raf/MEK/ERK module in mammalian cells, endogenous RKIP \was inhibited by antibody microinjection. Since the AP-1 transcription factor is a major target of Raf signaling (Kortenjann et al. Mol. Cell. Biol. 14:4815-4824, 1994;Rapp et al., Oncogene 9:3493-3498, 1994; Kolch et al. Oncogene 8:361-370, 1993), the influence of RKIP on AP-1 activity was tested as shown in FIG. 3.
Microinjections of antibodies and reporter genes were performed as described previously (Lavinsky et al. Proc. Natl. Acad. Sci. USA 95:2920-2925, 1998; Rose et al. J. Cell. Biol. 119:1405-1411, 1992). Briefly, quiescent Rat-1 cells were microinjected with the reporter plasmids and antibodies and either left unstimulated or treated with 200 ng/ml TPA or 20 μg/ml forskolin. The RKIP antiserum was purified over a GST-RKIP affinity column. NIH3T3 cells were stained with an activation specific anti-phospho-ERK monoclonal antibody (Sigma). ERK phosphorylation was quantified by densitometry. For this purpose areas with microinjected cells were randomly photographed, and the staining intensity of whole individual cells was measured using the PcBAS software.
(§1) In one embodiment, the present invention provides a method of identifying a cell growth modulating agent by analyzing the effect of a candidate agent on the expression of an RKIP responsive reporter. For example, to show the effect of the RKIP on the activity of the AP-1 mediated transcription, NIH 3T3 cells were co-transfected with a 3xTRE-CAT reporter and the above described expression plasmids. NIH 3T3 and 208F cells were transfected in 6-well plates with 1 μg of pCMV5-BXB and 3 μg of p53/RKIP using Superfect (Qiagen).
AP-1 luciferase assays and microinjection experiments with affinity-purified RKIP antiserum and TRE-lacZ reporter plasmids were carried out as previously described (Yeung et al. Nature, 401:173-177, 1999). […] This induction was due to the activation of MEK, since it could be suppressed by two structurally different MEK inhibitors, U0126 and PD98059 (FIG. 7(a)). […] These antibodies are therefore useful tools for investigating the molecular mechanism by which RKIP works. The RKIP antiserum interfered with the binding of Raf-1 and MEK to RKIP (FIG. 7(b)). […] Furthermore, the RKIP antibodies reversed the inhibitory effect of RKIP on MEK phosphorylation by Raf-1 (FIG. 7(c)).

MEK [2] = test: In vitro kinase assay: MEK; format: biochemical
Method: Kinase assays were done as described in Hafner et al. (Mol. Cell. Biol. 14:6696-6703, 1994). Activated Raf-1 was generated by co-expressing GST-Raf-1 with v-Ras and Lck in Sf-9 cells and collected on glutathione Sepharose beads. Subsequent thrombin cleavage released Raf-1 which was fully active and >90% pure. To activate MEK and ERK in vitro, 20 ng activated Raf-1 was incubated with 40 ng purified His/MEK-1 and 250 ng GST-ERK-2 in Raf kinase buffer containing 20 μM ATP for 20 minutes at 30° C. To measure kinase activities at individual steps the respective downstream components were omitted. The activation reactions were diluted into 50 μl Raf kinase buffer containing 20 μm ATP to yield equimolar concentrations of the kinases to be assayed and incubated with increasing amounts of purified RKIP on ice for 10 minutes. Similar assays may be performed with smaller polypeptides comprising RKIP motifs, or even with a peptide consisting essentially of an RKIP motif as defined herein. Then, 2 μCi [^32P]-γ-ATP and recombinant substrates were added and incubated for 20 minutes at 30° C. As substrates 200 ng kinase negative His/MEK-1 was used for Raf, 1 μg kinase negative GST-ERK for MEK, and 1 μg GST-ELK (New England Biolabs) for ERK. In some assays 1 μg GST-MEK was used as Raf-1 substrate with identical results. […]

Raf-1 [3] = molecular target: T1, Raf-1 (Homo sapiens, UniProt P04049); test: In vitro kinase assay of reconstituted Raf/MEK/ERK cascade: Raf-1; format: biochemical
T1 construct: GST (cleaved yes); made in house; host or cells: Sf-9 insect cells
Method: (§2) Kinase assays were done as described in Hafner et al. (Mol. Cell. Biol. 14:6696-6703, 1994). Activated Raf-1 was generated by co-expressing GST-Raf-1 with v-Ras and Lck in Sf-9 cells and collected on glutathione Sepharose beads. Subsequent thrombin cleavage released Raf-1 which was fully active and >90% pure. To activate MEK and ERK in vitro, 20 ng activated Raf-1 was incubated with 40 ng purified His/MEK-1 and 250 ng GST-ERK-2 in Raf kinase buffer containing 20 μM ATP for 20 minutes at 30° C. To measure kinase activities at individual steps the respective downstream components were omitted. The activation reactions were diluted into 50 μl Raf kinase buffer containing 20 μm ATP to yield equimolar concentrations of the kinases to be assayed and incubated with increasing amounts of purified RKIP on ice for 10 minutes. Similar assays may be performed with smaller polypeptides comprising RKIP motifs, or even with a peptide consisting essentially of an RKIP motif as defined herein. Then, 2 μCi [^32P]-γ-ATP and recombinant substrates were added and incubated for 20 minutes at 30° C. As substrates 200 ng kinase negative His/MEK-1 was used for Raf, 1 μg kinase negative GST-ERK for MEK, and 1 μg GST-ELK (New England Biolabs) for ERK. In some assays 1 μg GST-MEK was used as Raf-1 substrate with identical results.

Raf-1 [4] = test: Raf-1 immunoprecipitate kinase activity in transfected COS-1 cells; format: cell-based; conditions: co-transfection of RKIP
Method: (§3) The COS-1 cells were transfected as described (Catling et al., 1995, Mol. Cell. Biol. 15: 5214-5225) with 2 μg of HA-ERK-2, BXB, MEK and MEK-DD plasmids and the indicated amounts of p353/RKIP. The total amount of transfected DNA was kept constant using the appropriate vectors as carrier DNA. […] In addition, 0.1 μg of an AP1-Luc reporter was transfected for reporter gene assays. 48 hours post-transfection cells were serum starved for 20 hours and either left untreated or treated with TPA (200 ng/ml) or serum for 5 hours before being collected. Cells were lysed and cell extracts were used for immunoblotting or assayed for luciferase activity. For the GFP sorting experiments 5×10^6 NIH 3T3 cells were electroporated with either 100 μg pCMVori, 50 μg pCMV-GFP, and 50 μg pHACT or 100 μg pASC143, 50 μg CMV-GFP, and 50 μg CMV-HAC. Two days later cells were trypsinized and sorted for green fluorescent cells by preparative FACS. 100,000 GFP-positive cells were lysed in SDS-gel sample buffer and immunoblotted.
(§4) COS-1 cells were transiently transfected with HA-MEK and increasing amounts of RKIP expression vectors. Serum starved cells were stimulated with 100 ng/ml TPA for 20 minutes, and the kinase activities of Raf-1 and HA-MEK immunoprecipitates were measured.

[5] = tested on: cell lines resistant to apoptosis; test: Sensitivity to apoptotic stimuli on RKIP expression; format: cell-based; conditions: expression of RKIP; data not shown
ERK [6] = molecular target: T2, ERK (Homo sapiens, UniProt P28482); test: In vitro kinase assay: ERK; format: biochemical; conditions: purified RKIP, recombinant proteins in vitro
T2 construct: GST; made in house
Method: as §2

AP-1 activity = test: 3xTRE-CAT reporter in NIH 3T3 cells co-transfected with RKIP; format: cell-based; conditions: RKIP transfection
Method: as §1

MEKK-1 = test: MEK phosphorylation by immunoprecipitated MEKK-1; format: biochemical; conditions: MEKK-1 immunoprecipitated from COS-1 cells, knMEK substrate
Method: “BSA” indicates use of 15 μM bovine serum albumin; “Co.” substrate alone; and “kn”, kinase negative mutant. […] HA-MEK-DD or HA-MEK-1 expressed in COS-1 cells were immunoprecipitated with anti-HA antibodies from serum starved cells or TPA treated cells, respectively, and assayed for kinase activity. […] MEKK-1 was immunoprecipitated from transiently transfected COS-1 cells and used to phosphorylate knMEK.

Raf-1-MEK complexes = molecular target: T3, Raf-1-MEK complexes (Homo sapiens, UniProt P04049); test: Disruption of the Raf-1-MEK complex on glutathione Sepharose beads; format: binding; conditions: in vitro, purified RKIP
T3 construct: made in house; host or cells: Sf-9 insect cells
Method: In vitro binding assays contained 5 μg of GST-fusion protein immobilized on glutathione Sepharose beads and 0.5-5 μg purified recombinant protein in PBS supplemented with 10% bovine serum as nonspecific competitor. Sf-9 cell lysates were used as source of Raf proteins (Hafner et al., 1994, Mol. Cell. Biol. 14: 6696-6703). After incubation for 1 hour at 4° C. the samples were washed 4 times with PBS, resolved by SDS-PAGE and blotted. The blots were developed using ECL (Amersham).
GST-MEK and Raf-1 were co-expressed in Sf-9 cells. The GST-MEK-Raf-1 complex was purified by adsorption to glutathione Sepharose beads, washed, and resuspended in PBS. Purified RKIP was added at the concentrations indicated. After 1 hour at 4° C., the GST-MEK beads were washed three times with PBS and examined for associated proteins by Western blotting (WB) with the indicated antisera.

MEK [7] = molecular target: T4, MEK (Homo sapiens, UniProt Q02750); test: HA-MEK immunoprecipitate kinase activity in transfected COS-1 cells; format: cell-based; conditions: co-transfection of RKIP, dose dependent
T4 construct: expressed in transfected cells; host or cells: COS-1
Method: as §3, §4

NIH 3T3 and 208F cells = test: Transformation assays (morphological transformation, focus formation, soft agar); format: cell-based
From the text: Additionally, NIH 3T3 cells were transfected with BXB, alone or together with RKIP (linked to neomycin/G418 resistance encoding gene). The G418-resistant colonies were counted and scored for morphological transformation. Aliquots of the same transfection were allowed to grow to confluency without drug and were scored for focus formation. A BXB-transformed cell line was infected with LXSH-RKIP retrovirus or LXSH (hygromycin resistant) and seeded in soft agar in the presence of hygromycin. […] The data are expressed as the reduction in focus formation relative to focus formation upon co-transfection with empty vector (set to 100%).

ERK [8] = test: HA-ERK immunoprecipitate kinase activity in transfected COS-1 cells; format: cell-based
Method: as §3
COS-1 cells were transfected with the indicated expression plasmids plus increasing amounts of RKIP. HA-ERK-2 was immunoprecipitated and assayed with MBP.
COS-1 cells were transfected with the indicated expression vectors and the kinase activity of HA-ERK immunoprecipitates was examined.

GST-Raf-1 = molecular target: T5, GST-Raf-1 (Homo sapiens, UniProt P04049); test: Binding of purified RKIP to inactive and activated GST-Raf-1 beads; conditions: recombinant RKIP produced in E. coli
T5 construct: made in house; host or cells: Sf-9 insect cells
Method: Activated GST-Raf-1 was produced in Sf-9 insect cells co-infected with RasV12 and Lck, which results in a robust activation of the catalytic activity. GST-Raf-1 proteins were purified by adsorption to glutathione Sepharose beads and incubated with recombinant RKIP produced in E. coli. […] We also tested whether activation affected the binding of MEK and ERK to RKIP. Purified MEK and ERK were phosphorylated in vitro with recombinant Raf-1 or Raf-1 plus MEK, respectively, and incubated with GST or GST-RKIP beads. The binding reaction products were washed, separated on SDS gels, and immunoblotted with the appropriate antisera. […] However, since only small fractions of MEK and ERK become phosphorylated, we also carried out the phosphorylation in the presence of […] The blots were autoradiographed to detect phosphorylated MEK and ERK and were subsequently stained with the cognate antisera to visualize total protein bound. Under these conditions, binding of phosphorylated MEK and ERK to RKIP was evident.

[9] = purified RKIP, recombinant proteins in vitro
[10] = microinjection of an RKIP expression vector

T2 sequence (P28482 whole entry): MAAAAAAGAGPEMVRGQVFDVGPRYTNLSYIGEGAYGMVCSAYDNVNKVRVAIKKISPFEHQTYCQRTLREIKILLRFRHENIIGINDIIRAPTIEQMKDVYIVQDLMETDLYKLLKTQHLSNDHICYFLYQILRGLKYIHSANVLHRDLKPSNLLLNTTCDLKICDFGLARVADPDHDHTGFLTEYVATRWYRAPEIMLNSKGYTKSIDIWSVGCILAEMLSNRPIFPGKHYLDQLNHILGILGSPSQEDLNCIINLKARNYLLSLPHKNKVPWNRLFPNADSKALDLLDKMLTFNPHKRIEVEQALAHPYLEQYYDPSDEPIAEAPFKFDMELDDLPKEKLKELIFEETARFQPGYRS

## COc1cccc(-c2cc(=O)c3ccccc3o2)c1N [PD98059, reference compound]
[1]
  suppression of AP-1 reporter induction caused by anti-RKIP antibodies: suppressed

## N#CC(=C(/N)Sc1ccccc1N)/C(C#N)=C(\N)Sc1ccccc1N [U0126, reference compound]
[1]
  suppression of AP-1 reporter induction caused by anti-RKIP antibodies: suppressed

B1: RKIP: Raf kinase inhibitor protein; used as purified recombinant protein or expressed from vector p353/RKIP (protein, UniProt P30086 2-187, looked up)
Phosphatidylethanolamine-bindi …: PVDLSKWSGPLSLQEVDEQPQHPLHVTYAGAAVDELGKVLTPTQVKNRPTSISWDGLDSGKLYTLVLTDPDAPSRKDPKYREWHHFLVVNMKGNDISSGTVLSDYVGSGPPKGTGLHRYVWLVYEQDRPLKCDEPILSNRSGDHRGKFKVASFRKKYELRAPVAGTCYQAEWDDYVPKLYEQLSGK
MEK [2]; immunoprecipitated from COS-1 cells
  inhibition of MEK-DD or MEK activated by TPA treatment of cells: failed to inhibit
MEK [2]; [9]
  ERK phosphorylation by MEK: did not inhibit
Raf-1 [3]; Lineweaver-Burk plot, GST-MEK-1 substrate
  mechanism of Raf-1 inhibition: competitive inhibitor
Raf-1 [3]; in vitro
  Raf-1 autophosphorylation or phosphorylation of MBP by Raf-1: did not interfere
Raf-1 [3]; [9]
  phosphorylation of MEK by Raf-1: decreased
Raf-1 [4]
  activation of Raf-1 by TPA: only a small influence
[5]
  sensitivity to apoptotic stimuli: rendered sensitive
ERK [6]
  ELK phosphorylation by ERK: did not inhibit
AP-1 activity
  basal and BXB induced AP-1 activity: diminished
MEKK-1
  MEK phosphorylation by MEKK-1: did not prevent
Raf-1-MEK complexes
  physical interaction between Raf-1 and MEK: disrupted
MEK [7]
  activation of MEK by TPA: strongly inhibited
NIH 3T3 and 208F cells; RKIP overexpression
  induction of foci by v-fos or mutationally activated MEK alleles: only to a small extent
  v-src transformation: failed to inhibit
NIH 3T3 and 208F cells; RKIP overexpression with BXB
  total colony yield: decreased
NIH 3T3 and 208F cells; RKIP overexpression, morphological transformation, focus formation, anchorage independent growth
  transformation efficiency of BXB: significantly reduced
[1]; [10]
  AP-1 induction by TPA and BXB: impaired
  AP-1 stimulation by ERK-1: did not interfere
ERK [8]; RKIP co-transfection
  ERK activation by MEK-DD: did not affect
ERK [8]; RKIP overexpression
  activation of ERKs by v-Ras or v-Src oncogenes: downregulated
ERK [8]; increasing amounts of RKIP expression plasmid, dose dependent
  BXB induced activation of ERK: inhibited
GST-Raf-1
  RKIP binding to activated versus inactive GST-Raf-1: Less RKIP bound
